The target of this assay is Saccharomyces cerevisiae (Sc) Tim9 (Saccharomyces cerevisiae). The experiment in a line: SEC. In general terms: Size exclusion chromatography separates by hydrodynamic size, large species first.

The source of these data is publication doi:10.1101/2020.03.13.990150.

Broadly, the stoichiometry N is the number of molecules, sites or subunits per partner or assembly. “Saccharomyces cerevisiae (Sc) Tim9 (natural protein)” gave a stoichiometry N of 2.
